Consider five molecules from US20250250357A1 (NANJING ZAIMING PHARMACEUTICAL, published 2025).

Substitutions are numbered along the chain they refer to.

The labels stand for the following.
T1: human MSLN-R1-his protein (human, UniProt Q13421 296-390)
T1 construct: Region 1 of human mesothelin, made in HEK293E cells, His-tagged; also called human MSLN-R1 protein; hMSLN-R1-his; not shown: His tag
T1 chain: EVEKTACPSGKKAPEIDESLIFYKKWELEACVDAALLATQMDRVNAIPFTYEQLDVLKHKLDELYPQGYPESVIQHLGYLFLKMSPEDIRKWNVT

B1: S009-F8-12.13 (antibody, human IgG1, kappa, V domains shown)
VH: QVQLQQPGAELVKPGASVKLSCKASGYTFTSYWMHWVKQRPGQGLEWIGMIHPNSGSTNYNEKFKSKATLTVDKSSSTAYMQLSSLTSEDSAVYYCARRTPIITLVGHWYFDVWGTGTTVTVSS
VL: DIVMTQSHKFMSTSVGDRVSITCKASQDVGTAVAWYQQKPGQSPKLLIYWASTRHTGVPDRFTGSGSGTDFTLTISNVQSEDLADYFCQQYSSYPLTFGAGTKLELKR
B2: S009-F8-15.19 (antibody, human IgG1, kappa, V domains shown)
VH: EFQLQQSGPELVKPGASVKISCKASGYSFTDYNMNWVKQSNGKSLEWIGIINPYYGTTSNNQNFKGKATLTVDQSSSTAYMQLNSLTSDDSAVYYCARWLRRDAMDYWGQGTSVTVSS
VL: B1 VL with Q6P, T22A, T31S, A32S, A51T, L96W, A100G, L106I
B3: S009-F8-13.8 (antibody, human IgG1, kappa, V domains shown)
VH: EFQLQQSGPELVKPGASVKISCKASGYSFTDYNMNWVKQTNGKSLEWIGIINPNYGTSSYNQKFKGKATLTVDQSSSTAYMQLNSLTSEDSAVYYCARVGRDNSGFDYWGQGTTLTVSS
VL: QIVLTQSPAIMSASPGEKVTMTCSASSSVSYMYWYQQKPGSSPRLLIYDTSNLASGVPVRFSGSGSGTSYSLTISRMEAEDAATYYCQQWSSYPPTFGSGTELEIKR
B4: S009-F8-9.16 (antibody, human IgG1, kappa, V domains shown)
VH: EVHLQQSGPVLVKPGASVKMSCKASGYTFTDYFMNWVKQSHGKSLEWIGVINPHNGYVNYNQKFQGRATLTVDKSSSTVYMELNSLTSEDSAVYHCARSAESAWFAYWGQRTLVTVSA
VL: DVLMTQTPLSLPVSLGDQVSISCRSSQSIVHVKGNTYLEWYLQKPGQSPELLIYKVSNRFSGVPDRFSGGGSGTDFTLKISRVEPEDLGVYYCFQGSHLPYTFGGGTKLEIKR
B5: S009-F8-18.9 (antibody, human IgG1, kappa, V domains shown)
VH: EFQLQQSGPELVKPGASVKISCKASGYSFTDYNMNWVKQSNGKSLEWIGIINPNYGTTSYNQKFKGRATLTVDQSSSTAYVQLNSLTSEDSAVYYCARGGYDNEAMDYWGQGTSVTVSS
VL: QIVLTQSPAIMSASPGEKVTMTCSASSSVSYMHWYQQKSGTSPKRWIYDTSKLASGVPARFSGSGSGTSYSLTISSMEAEDAATYYCQQWSSNPPTFGAGTKLELKR

T2 sequence (Q13421 other isoform, or with tags, fused parts or gaps): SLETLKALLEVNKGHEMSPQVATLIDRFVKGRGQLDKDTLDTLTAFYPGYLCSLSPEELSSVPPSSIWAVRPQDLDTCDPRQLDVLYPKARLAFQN

One assay addresses T2, human MSLN-R2-his protein (human, UniProt Q13421 391-486).
T2 construct: Region 2 of human mesothelin, made in HEK293E cells, His-tagged; also called human MSLN-R2 protein; hMSLN-R2-his; not shown: His tag
Kind of assay: ELISA on coated MSLN-R2; antibody 10 nM.
Take B1: the OD450 came out at 0.07 OD450.
Take B2: the OD450 is 0.05 OD450.
Still for that read-out and setting: next, B3: 0.05 OD450; B4: 0.05 OD450.
Still for that read-out and setting: with B5 the figure was 0.06 OD450.

The target of a further assay is T3, human MSLN-R3-his protein (human, UniProt Q13421 487-598).
T3 construct: Region 3 of human mesothelin, made in HEK293E cells, His-tagged; also called human MSLN-R3 protein; hMSLN-R3-his; not shown: His tag
T3 sequence (Q13421 495-606): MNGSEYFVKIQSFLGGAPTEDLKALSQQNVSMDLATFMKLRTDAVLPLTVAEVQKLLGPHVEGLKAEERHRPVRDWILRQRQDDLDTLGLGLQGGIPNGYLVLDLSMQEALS
Description: ELISA on coated MSLN-R3; antibody 0.001 nM. (ELISA stands for enzyme-linked immunosorbent assay.)
The molecule B1 yielded an OD450 of 0.05 OD450.
For the molecule B2, the OD450 was 0.04 OD450.
For the molecule B3, the OD450 was found to be 0.05 OD450.
Take B4: the OD450 was 0.11 OD450.
As for B5, the OD450 was determined as 0.05 OD450.

Another assay concerns the target T2, human MSLN-R2-his protein. Kind of assay: ELISA on coated MSLN-R2; antibody 0.0001 nM.
Description: (§1) The plate was sealed with a plastic film and incubated at 4° C. overnight. The next day, the plate was washed twice with PBST, and a blocking buffer [PBS+2% (w/w) BSA] was added for blocking at room temperature for 2 h. The blocking buffer was discarded, and a chimeric antibody or negative control antibody serially diluted from 100 nM was added at 50 μL/well. After incubation at 37° C. for 2 h, the plate was washed 3 times with PBST. […] After incubation at 37° C. for 2 h, the plate was washed 5 times with PBST. A TMB substrate was added at 50 μL/well for incubation at room temperature for 5-10 min, and then a stop solution (1.0 N HCl) was added at 50 μL/well.
Molecule B1 returned an OD450 of 0.04 OD450.
B2 registered an OD450 of 0.05 OD450.
For B3, the OD450 came out at 0.05 OD450.
Molecule B4 displayed an OD450 of 0.04 OD450.
Same read-out and setting: next, B5: 0.04 OD450.

The target in another assay is T3, human MSLN-R3-his protein. Description: ELISA on coated MSLN-R3; antibody 0.1 nM.
Description: as §1
The molecule B1 displayed an OD450 of 0.05 OD450.
For B2, the OD450 came to 0.04 OD450.
In turn, B3 registered an OD450 of 0.04 OD450.
On the same count and under the same terms, with B4 the figure was 1.38 OD450.
Regarding B5, the OD450 turned out to be 0.04 OD450.

Another assay addresses T1, human MSLN-R1-his protein. Kind of assay: ELISA on coated MSLN-R1; antibody 10 nM.
As for B1, the OD450 was determined as 2.16 OD450.
With B2, the OD450 came out at 1.55 OD450.
B3 returned an OD450 of 2.1 OD450.
In the case of B4, the OD450 was 0.05 OD450.
B5 had an OD450 of 2.12 OD450.

For another assay, the target named is T1, human MSLN-R1-his protein. Kind of assay: ELISA on coated MSLN-R1; antibody 100 nM.
Description: as §1
In turn, B1 showed an OD450 of 2.17 OD450.
Molecule B2 came in with an OD450 of 2.07 OD450.
B3 gave an OD450 of 2.35 OD450.
Regarding B4, the OD450 stood at 0.09 OD450.
Still for that read-out and setting: with B5 the figure was 2.15 OD450.

The target in the next assay is T2, human MSLN-R2-his protein. Description: ELISA on coated MSLN-R2; no antibody (blank).
Description: as §1
Consider B1, for which the OD450 came to 0.05 OD450.
Still for that read-out and setting: next, B2: 0.05 OD450; B3: 0.05 OD450; B4: 0.05 OD450.
B5 had an OD450 of 0.05 OD450.

For another assay, the target named is T1, human MSLN-R1-his protein. Kind of assay: ELISA on coated MSLN-R1; no antibody (blank).
Description: as §1
As for B1, the OD450 was determined as 0.05 OD450.
Regarding B2, the OD450 turned out to be 0.05 OD450.
B3 registered an OD450 of 0.05 OD450.
On to B4, for which the OD450 turned out to be 0.04 OD450.
As for B5, the OD450 amounted to 0.05 OD450.

The target in the next assay is T2, human MSLN-R2-his protein. Description: ELISA on coated MSLN-R2; antibody 1 nM.
Description: as §1
On to B1, for which the OD450 was found to be 0.05 OD450.
Same read-out and setting: with B2 the figure was 0.04 OD450; with B3, 0.04 OD450.
For B4, the OD450 worked out at 0.04 OD450.
As for B5, the OD450 was determined as 0.05 OD450.

For the next assay, the target named is T3, human MSLN-R3-his protein. Description: ELISA on coated MSLN-R3; antibody 1 nM.
Description: as §1
In the case of B1, the OD450 is 0.06 OD450.
B2 returned an OD450 of 0.04 OD450.
As to B3, the OD450 is 0.04 OD450.
Take B4: the OD450 amounted to 2.23 OD450.
Same read-out and setting: next, B5: 0.05 OD450.

The target of the next assay is T2, human MSLN-R2-his protein. Description: ELISA on coated MSLN-R2; antibody 0.01 nM.
For the molecule B1, the OD450 came out at 0.05 OD450.
In turn, B2 yielded an OD450 of 0.04 OD450.
B3 registered an OD450 of 0.04 OD450.
On the same count and under the same terms, with B4 the figure was 0.04 OD450; with B5, 0.04 OD450.

The next assay has as its target T1, human MSLN-R1-his protein. Description: ELISA on coated MSLN-R1; antibody 0.01 nM.
Description: as §1
B1 returned an OD450 of 1.18 OD450.
Regarding B2, the OD450 was found to be 0.05 OD450.
B3: the OD450 is 0.28 OD450.
Same read-out and setting: next, B4: 0.04 OD450; B5: 0.62 OD450.

For a further assay, the target named is T3, human MSLN-R3-his protein. Description: ELISA on coated MSLN-R3; antibody 0.01 nM.
B1 displayed an OD450 of 0.04 OD450.
In turn, B2 returned an OD450 of 0.04 OD450.
As for B3, the OD450 was 0.04 OD450.
B4 displayed an OD450 of 0.5 OD450.
In turn, B5 registered an OD450 of 0.04 OD450.

For a further assay, the target named is T1, human MSLN-R1-his protein. Kind of assay: ELISA on coated MSLN-R1; antibody 1 nM.
Description: as §1
As to B1, the OD450 turned out to be 2.06 OD450.
Molecule B2 showed an OD450 of 0.54 OD450.
Same read-out and setting: with B3 the figure was 1.8 OD450; with B4, 0.04 OD450; with B5, 1.96 OD450.

The next assay deals with T2, human MSLN-R2-his protein. Description: ELISA on coated MSLN-R2; antibody 0.001 nM.
Description: as §1
B1 returned an OD450 of 0.04 OD450.
B2 yielded an OD450 of 0.04 OD450.
For the molecule B3, the OD450 was 0.05 OD450.
As to B4, the OD450 turned out to be 0.04 OD450.
Consider B5, for which the OD450 stood at 0.04 OD450.

The next assay addresses T3, human MSLN-R3-his protein. Kind of assay: ELISA on coated MSLN-R3; antibody 100 nM.
B1: the OD450 came to 0.2 OD450.
On to B2, for which the OD450 was 0.08 OD450.
B3: the OD450 was found to be 0.06 OD450.
Molecule B4 had an OD450 of 2.4 OD450.
For B5, the OD450 amounted to 0.1 OD450.

Another assay deals with T1, human MSLN-R1-his protein. Kind of assay: ELISA on coated MSLN-R1; antibody 0.1 nM.
Description: as §1
B1: the OD450 worked out at 1.97 OD450.
With B2, the OD450 was 0.1 OD450.
For B3, the OD450 turned out to be 1.26 OD450.
As for B4, the OD450 was determined as 0.04 OD450.
The molecule B5 had an OD450 of 1.73 OD450.

The target of a further assay is T3, human MSLN-R3-his protein. Description: ELISA on coated MSLN-R3; antibody 10 nM.
Regarding B1, the OD450 amounted to 0.1 OD450.
B2: the OD450 was found to be 0.05 OD450.
Still for that read-out and setting: next, B3: 0.05 OD450.
Take B4: the OD450 was 2.03 OD450.
B5 showed an OD450 of 0.06 OD450.

Another assay has as its target T2, human MSLN-R2-his protein. Kind of assay: ELISA on coated MSLN-R2; antibody 100 nM.
Description: as §1
Molecule B1 gave an OD450 of 0.15 OD450.
B2 had an OD450 of 0.05 OD450.
For the molecule B3, the OD450 was 0.06 OD450.
For B4, the OD450 was found to be 0.07 OD450.
In turn, B5 displayed an OD450 of 0.08 OD450.

For another assay, the target named is T3, human MSLN-R3-his protein. Kind of assay: ELISA on coated MSLN-R3; no antibody (blank).
With B1, the OD450 worked out at 0.05 OD450.
B2 had an OD450 of 0.05 OD450.
The molecule B3 gave an OD450 of 0.05 OD450.
Molecule B4 displayed an OD450 of 0.03 OD450.
For B5, the OD450 is 0.05 OD450.

Another assay addresses T1, human MSLN-R1-his protein. Kind of assay: ELISA on coated MSLN-R1; antibody 0.0001 nM.
The molecule B1 registered an OD450 of 0.32 OD450.
B2 registered an OD450 of 0.04 OD450.
For the molecule B3, the OD450 is 0.05 OD450.
On the same count and under the same terms, with B4 the figure was 0.04 OD450.
Turning to B5, the OD450 turned out to be 0.06 OD450.

In a further assay the target is T3, human MSLN-R3-his protein. Kind of assay: ELISA on coated MSLN-R3; antibody 0.0001 nM.
B1 had an OD450 of 0.04 OD450.
The same measure, in the same setting: next, B2: 0.04 OD450; B3: 0.04 OD450; B4: 0.06 OD450.
For the molecule B5, the OD450 is 0.04 OD450.

The target of another assay is T1, human MSLN-R1-his protein. Kind of assay: ELISA on coated MSLN-R1; antibody 0.001 nM.
Description: as §1
In turn, B1 came in with an OD450 of 0.52 OD450.
B2: the OD450 is 0.05 OD450.
B3 came in with an OD450 of 0.08 OD450.
B4 displayed an OD450 of 0.04 OD450.
B5 registered an OD450 of 0.15 OD450.

A further assay deals with T2, human MSLN-R2-his protein. Description: ELISA on coated MSLN-R2; antibody 0.1 nM.
Description: as §1
Take B1: the OD450 was found to be 0.05 OD450.
As to B2, the OD450 was 0.04 OD450.
Same read-out and setting: next, B3: 0.05 OD450; B4: 0.04 OD450; B5: 0.04 OD450.
